One assay deals with Rab7A(QL)-6xHis (human) (UniProt P51149). In words: liposome flotation; purified VPS13C construct with SUVs (84.8% POPC, 10% POPE, 5% DGS-NTA, 0.2% Rhodamine-PE) to which His-tagged Rab7A(QL) or ATG7 was tethered; 1 mM GTP, 2 mM Mg2+, room temperature 20 min; OptiPrep gradient, top fraction on SDS-PAGE.
In assay [1] the target is human Rab7A-Q67L with an N-terminal Strep tag (human) (UniProt P51149). In words: pull-down; Strep-Rab7A(Q67L) and FLAG-tagged VPS13C constructs co-expressed in Expi293F; lysate in buffer A with 1 mM GTP and 2 mM MgCl2 on Strep-Tactin XT resin, 2 h at 4 °C, eluted with 50 mM biotin; SDS-PAGE with Coomassie stain and/or anti-FLAG western blot. In general terms: A western blot detects proteins with antibodies after separation by electrophoresis.

A value given as a limit tells only on which side of the number the result lay.

Chain of Rab7A(QL)-6xHis (human) (P51149 whole entry Q67L): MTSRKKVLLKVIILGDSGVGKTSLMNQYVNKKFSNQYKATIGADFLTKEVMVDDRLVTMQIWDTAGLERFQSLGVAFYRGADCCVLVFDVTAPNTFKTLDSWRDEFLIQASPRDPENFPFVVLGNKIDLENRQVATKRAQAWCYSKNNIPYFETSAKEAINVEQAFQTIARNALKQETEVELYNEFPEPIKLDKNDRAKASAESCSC
Chain of human Rab7A-Q67L with an N-terminal Strep tag (human) (P51149 whole entry Q67L): as above
Chain of VPS13C lacking the amphipathic helices of the ATG2_C motif, C-terminal 3xFLAG (Q709C8 whole entry): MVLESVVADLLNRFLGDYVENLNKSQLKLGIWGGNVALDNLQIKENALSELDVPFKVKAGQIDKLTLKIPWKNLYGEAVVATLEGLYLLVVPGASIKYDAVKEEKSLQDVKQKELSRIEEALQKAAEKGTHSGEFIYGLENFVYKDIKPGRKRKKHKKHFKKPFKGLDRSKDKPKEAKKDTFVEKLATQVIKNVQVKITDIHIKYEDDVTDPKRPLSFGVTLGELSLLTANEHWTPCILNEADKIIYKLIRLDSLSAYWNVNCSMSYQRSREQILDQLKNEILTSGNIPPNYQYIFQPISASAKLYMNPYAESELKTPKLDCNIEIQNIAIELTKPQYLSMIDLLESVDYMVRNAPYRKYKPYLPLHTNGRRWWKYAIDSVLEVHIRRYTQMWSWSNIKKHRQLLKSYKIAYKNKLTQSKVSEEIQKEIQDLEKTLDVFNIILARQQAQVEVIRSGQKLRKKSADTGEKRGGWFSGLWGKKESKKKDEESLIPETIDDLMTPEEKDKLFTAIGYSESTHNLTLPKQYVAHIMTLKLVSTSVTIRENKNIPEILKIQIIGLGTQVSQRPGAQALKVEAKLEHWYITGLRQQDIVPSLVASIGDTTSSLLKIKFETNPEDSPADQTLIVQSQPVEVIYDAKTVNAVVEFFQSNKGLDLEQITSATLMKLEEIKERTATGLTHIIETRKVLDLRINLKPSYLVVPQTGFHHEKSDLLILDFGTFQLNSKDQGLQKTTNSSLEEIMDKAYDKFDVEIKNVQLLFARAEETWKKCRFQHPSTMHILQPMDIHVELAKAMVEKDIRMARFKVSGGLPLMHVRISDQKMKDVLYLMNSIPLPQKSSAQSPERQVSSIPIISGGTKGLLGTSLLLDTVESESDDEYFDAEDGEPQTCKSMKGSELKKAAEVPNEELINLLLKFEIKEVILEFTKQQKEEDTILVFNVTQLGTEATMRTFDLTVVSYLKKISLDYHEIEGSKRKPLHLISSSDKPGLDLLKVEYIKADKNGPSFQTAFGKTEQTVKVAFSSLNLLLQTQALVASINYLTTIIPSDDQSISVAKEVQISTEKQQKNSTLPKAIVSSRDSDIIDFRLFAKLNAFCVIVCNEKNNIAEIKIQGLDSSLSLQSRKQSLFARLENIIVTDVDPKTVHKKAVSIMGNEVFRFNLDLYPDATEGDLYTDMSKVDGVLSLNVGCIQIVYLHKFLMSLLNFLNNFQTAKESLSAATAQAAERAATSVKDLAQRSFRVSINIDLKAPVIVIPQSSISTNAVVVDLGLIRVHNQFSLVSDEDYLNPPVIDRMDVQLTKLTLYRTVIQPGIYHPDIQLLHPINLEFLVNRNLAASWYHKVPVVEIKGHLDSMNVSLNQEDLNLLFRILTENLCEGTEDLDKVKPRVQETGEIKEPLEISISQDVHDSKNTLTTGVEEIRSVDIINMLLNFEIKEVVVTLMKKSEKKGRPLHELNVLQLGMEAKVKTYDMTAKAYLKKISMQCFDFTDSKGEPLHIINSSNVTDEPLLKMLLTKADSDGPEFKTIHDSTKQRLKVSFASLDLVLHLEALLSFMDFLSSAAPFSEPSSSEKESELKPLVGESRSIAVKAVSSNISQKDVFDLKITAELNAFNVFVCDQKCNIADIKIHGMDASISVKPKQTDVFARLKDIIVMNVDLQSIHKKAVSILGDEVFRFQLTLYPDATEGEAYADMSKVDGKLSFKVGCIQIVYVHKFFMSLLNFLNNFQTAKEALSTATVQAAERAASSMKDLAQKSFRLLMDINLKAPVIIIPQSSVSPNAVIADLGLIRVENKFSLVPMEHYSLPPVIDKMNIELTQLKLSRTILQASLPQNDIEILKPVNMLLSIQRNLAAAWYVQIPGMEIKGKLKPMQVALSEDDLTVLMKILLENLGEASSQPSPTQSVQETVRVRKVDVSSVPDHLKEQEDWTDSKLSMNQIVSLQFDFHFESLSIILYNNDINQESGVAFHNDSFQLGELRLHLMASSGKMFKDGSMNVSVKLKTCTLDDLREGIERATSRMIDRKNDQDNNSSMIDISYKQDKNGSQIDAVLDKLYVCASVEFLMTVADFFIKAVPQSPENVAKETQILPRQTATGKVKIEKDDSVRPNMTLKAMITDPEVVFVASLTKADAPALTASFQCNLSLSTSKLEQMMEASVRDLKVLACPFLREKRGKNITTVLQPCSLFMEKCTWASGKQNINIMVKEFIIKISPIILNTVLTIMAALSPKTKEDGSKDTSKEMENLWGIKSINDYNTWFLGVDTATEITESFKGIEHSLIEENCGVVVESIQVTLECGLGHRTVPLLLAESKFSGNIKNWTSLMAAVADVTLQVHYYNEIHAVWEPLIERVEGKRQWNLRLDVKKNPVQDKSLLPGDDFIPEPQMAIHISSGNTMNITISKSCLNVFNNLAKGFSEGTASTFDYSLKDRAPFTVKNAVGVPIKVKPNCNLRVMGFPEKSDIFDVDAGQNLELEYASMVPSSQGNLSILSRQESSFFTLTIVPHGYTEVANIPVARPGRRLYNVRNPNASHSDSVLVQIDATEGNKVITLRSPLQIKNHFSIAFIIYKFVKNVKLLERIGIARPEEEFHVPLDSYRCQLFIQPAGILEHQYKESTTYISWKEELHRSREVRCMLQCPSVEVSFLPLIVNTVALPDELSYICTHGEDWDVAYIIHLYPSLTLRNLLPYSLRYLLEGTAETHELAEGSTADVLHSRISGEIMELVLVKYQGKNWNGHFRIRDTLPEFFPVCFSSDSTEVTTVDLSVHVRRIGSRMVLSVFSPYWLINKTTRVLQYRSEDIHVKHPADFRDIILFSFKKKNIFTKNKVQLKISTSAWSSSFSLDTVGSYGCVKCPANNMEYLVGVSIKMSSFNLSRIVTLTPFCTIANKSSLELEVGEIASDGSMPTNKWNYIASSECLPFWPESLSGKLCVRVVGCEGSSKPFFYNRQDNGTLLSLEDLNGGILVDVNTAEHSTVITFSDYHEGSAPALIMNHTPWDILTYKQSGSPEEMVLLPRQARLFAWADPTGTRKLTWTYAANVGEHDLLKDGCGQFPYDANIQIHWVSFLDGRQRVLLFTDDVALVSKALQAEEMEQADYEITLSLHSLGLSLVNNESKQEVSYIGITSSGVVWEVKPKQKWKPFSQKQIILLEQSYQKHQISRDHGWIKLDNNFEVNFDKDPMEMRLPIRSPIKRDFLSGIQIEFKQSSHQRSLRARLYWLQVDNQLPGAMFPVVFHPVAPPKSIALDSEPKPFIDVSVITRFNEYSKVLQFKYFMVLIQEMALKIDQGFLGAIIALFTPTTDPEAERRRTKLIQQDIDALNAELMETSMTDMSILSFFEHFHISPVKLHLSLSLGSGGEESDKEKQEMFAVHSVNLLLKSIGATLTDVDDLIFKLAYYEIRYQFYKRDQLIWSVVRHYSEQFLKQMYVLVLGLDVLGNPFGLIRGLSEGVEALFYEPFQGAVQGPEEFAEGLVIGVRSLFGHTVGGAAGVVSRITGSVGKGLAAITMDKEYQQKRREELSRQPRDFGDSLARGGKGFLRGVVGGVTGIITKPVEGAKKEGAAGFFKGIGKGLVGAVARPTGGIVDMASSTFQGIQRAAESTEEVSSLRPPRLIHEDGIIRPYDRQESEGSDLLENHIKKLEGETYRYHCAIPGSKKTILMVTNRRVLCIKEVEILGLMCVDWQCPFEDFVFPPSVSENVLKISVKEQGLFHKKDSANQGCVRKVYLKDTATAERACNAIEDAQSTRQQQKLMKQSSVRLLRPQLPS

On to “VPS13C lacking the amphipathic helices of the ATG2_C motif, C-terminal 3xFLAG (from UniProt Q709C8 1-3753) (natural protein)”, for which, in the assay with Rab7A(QL)-6xHis (human), the percent co-floated with SUVs bearing His-tagged Rab7A is more than 80%.
Take “full-length human VPS13C with a C-terminal 3xFLAG tag, Q709C8 1-3753”: the fraction of total overexpressed VPS13C retained by Rab7(Q67L) in assay [1] worked out at 5%.

The record behind these values is doi:10.1101/2025.11.10.687702.
